In the RNAGym collection of RNA variant scans (doi:10.7554/elife.80360):

B1: Hairpin Ribozyme (parent)
chain: GUCCUCUUUCACGUGCGCGUGAAAGAGAGAAGUGAACCAGAGAAACACACGUUGUGGUAUAUUACCUGGUA

Variants of: B1
Assay: self-cleavage, relative activity (ratio to wild type); higher = more cleavage; co-transcriptional

Q: For GUCCUCUUUCACGUGCGCGUGAAAGAGAGAAGUGAAACAGAUAAACACACGUUGUGGUAUAUUACCUGGUA, which self-cleavage is on record?
A: Its self-cleavage is 0.165.

Q: For GUCCUCUUUCACGUGCGCGUGAAAGAGAGAAGUGAAACAGAGAAACAGACGUUGUGGUAUAUUACCUGGUA, which self-cleavage is on record?
A: The self-cleavage was 0.143.

Q: With GUCCUCUUUCACGUGCGCGUGAAAGAGAGAAGUGAAACAGAGAAACAUACGUUGUGGUAUAUUACCUGGUA as the variant, how does the self-cleavage read?
A: The self-cleavage was 0.0819.

Q: For GUCCUCUUUCACGUGCGCGUGAAAGAGAGAAGUGAAGCAGAGAAGCACACGUUGUGGUAUAUUACCUGGUA, which self-cleavage is on record?
A: Its self-cleavage is 0.103.

Q: Which self-cleavage does the source give for GUCCUCUUUCACGUGCGCGUGAAAGAGAGAAGUGAAGCAGAGAAUCACACGUUGUGGUAUAUUACCUGGUA here?
A: The self-cleavage was 0.188.

Q: For GUCCUCUUUCACGUGCGCGUGAAAGAGAGAAGUGAAACAGAGAAACACACGUUGUGGUAGAUUACCUGGUA, which self-cleavage is on record?
A: Its self-cleavage is 0.171.

Q: Which self-cleavage does the source give for GUCCUCUUUCACGUGCGCGUGAAAGAGAGAAGUGAAACCGAGAAACACACGUUGUGGUAUAUUACCUGGUA here?
A: Its self-cleavage is 0.128.

Q: With GUCCUCUUUCACGUGCGCGUGAAAGAGAGAAGUGAAACAGAGAAACACACGUUGUGGUAUCUUACCUGGUA as the variant, how does the self-cleavage read?
A: Its self-cleavage is 0.136.

Q: For GUCCUCUUUCACGUGCGCGUGAAAGAGAGAAGUGAAACAGAGAAACACACGUUGUGGUAUUUUACCUGGUA, which self-cleavage is on record?
A: Its self-cleavage is 0.142.

Q: For GUCCUCUUUCACGUGCGCGUGAAAGAGAGAAGUGAAACAGAGAAACACACGUUGUGGGAUAUUACCUGGUA, which self-cleavage is on record?
A: The self-cleavage was 0.269.

Q: With GUCCUCUUUCACGUGCGCGUGAAAGAGAGAAGUGAAACAGAGAAACACACGUUGUGGCAUAUUACCUGGUA as the variant, how does the self-cleavage read?
A: The self-cleavage was 0.349.

Q: For GUCCUCUUUCACGUGCGCGUGAAAGAGAGAAGUGAAACAGAGAAACACACGUUGUGGUAUAUUACCUGCUA, which self-cleavage is on record?
A: The self-cleavage was 0.467.

Q: With GUCCUCUUUCACGUGCGCGUGAAAGAGAGAAGUGAAAUAGAGAAACACACGUUGUGGUAUAUUACCUGGUA as the variant, how does the self-cleavage read?
A: The self-cleavage was 0.0834.

Q: For GUCCUCUUUCACGUGCGCGUGAAAGAGAGAAGUGAAAAAGAGAAACACACGUUGUGGUAUAUUACCUGGUA, which self-cleavage is on record?
A: Its self-cleavage is 0.144.

Q: Which self-cleavage does the source give for GUCCUCUUUCACGUGCGCGUGAAAGAGAGAAGUGAAGCAGAGAAACACUCGUUGUGGUAUAUUACCUGGUA here?
A: The self-cleavage was 0.153.

Q: With GUCCUCUUUCACGUGCGCGUGAAAGAGAGAAGUGAAGCAGAGAAACUCACGUUGUGGUAUAUUACCUGGUA as the variant, how does the self-cleavage read?
A: The self-cleavage was 0.113.

Q: For GUCCUCUUUCACGUGCGCGUGAAAGAGAGAAGUGAAACAGAGAAACACACGUUGUGGUAUACUACCUGGUA, which self-cleavage is on record?
A: Its self-cleavage is 0.196.

Q: Which self-cleavage does the source give for GUCCUCUUUCACGUGCGCGUGAAAGAGAGAAGUGAAACAGAGAAACACACGGUGUGGUAUAUUACCUGGUA here?
A: The self-cleavage was 0.224.

Q: Which self-cleavage does the source give for GUCCUCUUUCACGUGCGCGUGAAAGAGAGAAGUGAAACAGAGAAACACUCGUUGUGGUAUAUUACCUGGUA here?
A: Its self-cleavage is 0.0951.

Q: With GUCCUCUUUCACGUGCGCGUGAAAGAGAGAAGUGAAACAGAGAAACACACGUUGUGAUAUAUUACCUGGUA as the variant, how does the self-cleavage read?
A: Its self-cleavage is 0.145.

Q: For GUCCUCUUUCACGUGCGCGUGAAAGAGAGAAGUGAAACAGAGAAACACACGUUGUGUUAUAUUACCUGGUA, which self-cleavage is on record?
A: The self-cleavage was 0.142.

Q: For GUCCUCUUUCACGUGCGCGUGAAAGAGAGAAGUGAAACAGAGAAACACACUUUGUGGUAUAUUACCUGGUA, which self-cleavage is on record?
A: The self-cleavage was 0.563.

Q: With GUCCUCUUUCACGUGCGCGUGAAAGAGAGAAGUGAAACAGAGAAACACACGUUGUGGUAUAUUACCUUGUA as the variant, how does the self-cleavage read?
A: The self-cleavage was 0.332.

Q: Which self-cleavage does the source give for GUCCUCUUUCACGUGCGCGUGAAAGAGAGAAGUGAAACAGAGAAACACACGUAGUGGUAUAUUACCUGGUA here?
A: Its self-cleavage is 0.356.

Q: For GUCCUCUUUCACGUGCGCGUGAAAGAGAGAAGUGAAACAGAGAAACACACGUCGUGGUAUAUUACCUGGUA, which self-cleavage is on record?
A: The self-cleavage was 0.515.

Q: Which self-cleavage does the source give for GUCCUCUUUCACGUGCGCGUGAAAGAGAGAAGUGAAACAGAGAAAUACACGUUGUGGUAUAUUACCUGGUA here?
A: Its self-cleavage is 0.0922.

Q: For GUCCUCUUUCACGUGCGCGUGAAAGAGAGAAGUGAAGCAGCGAAACACACGUUGUGGUAUAUUACCUGGUA, which self-cleavage is on record?
A: Its self-cleavage is 0.282.

Q: For GUCCUCUUUCACGUGCGCGUGAAAGAGAGAAGUGAAGCAGGGAAACACACGUUGUGGUAUAUUACCUGGUA, which self-cleavage is on record?
A: The self-cleavage was 0.369.

Q: For GUCCUCUUUCACGUGCGCGUGAAAGAGAGAAGUGAAACAGAGAACCACACGUUGUGGUAUAUUACCUGGUA, which self-cleavage is on record?
A: Its self-cleavage is 0.189.

Q: For GUCCUCUUUCACGUGCGCGUGAAAGAGAGAAGUGAAACAUAGAAACACACGUUGUGGUAUAUUACCUGGUA, which self-cleavage is on record?
A: The self-cleavage was 0.129.

Q: For GUCCUCUUUCACGUGCGCGUGAAAGAGAGAAGUGAAACACAGAAACACACGUUGUGGUAUAUUACCUGGUA, which self-cleavage is on record?
A: The self-cleavage was 0.158.

Q: With GUCCUCUUUCACGUGCGCGUGAAAGAGAGAAGUGAAACAAAGAAACACACGUUGUGGUAUAUUACCUGGUA as the variant, how does the self-cleavage read?
A: Its self-cleavage is 0.174.

Q: With GUCCUCUUUCACGUGCGCGUGAAAGAGAGAAGUGAAACAGAGAAACACACGUUGUGGUAUAUUACCUGGUG as the variant, how does the self-cleavage read?
A: Its self-cleavage is 0.323.

Q: Which self-cleavage does the source give for GUCCUCUUUCACGUGCGCGUGAAAGAGAGAAGUGAAACAGAGAAACACACGUUGUGGUAUAUUAGCUGGUA here?
A: Its self-cleavage is 0.124.

Q: Which self-cleavage does the source give for GUCCUCUUUCACGUGCGCGUGAAAGAGAGAAGUGAAACAGAGGAACACACGUUGUGGUAUAUUACCUGGUA here?
A: The self-cleavage was 0.0981.

Q: For GUCCUCUUUCACGUGCGCGUGAAAGAGAGAAGUGAAACAGCGAAACACACGUUGUGGUAUAUUACCUGGUA, which self-cleavage is on record?
A: Its self-cleavage is 0.365.

Q: Which self-cleavage does the source give for GUCCUCUUUCACGUGCGCGUGAAAGAGAGAAGUGAAACAGUGAAACACACGUUGUGGUAUAUUACCUGGUA here?
A: Its self-cleavage is 0.429.

Q: For GUCCUCUUUCACGUGCGCGUGAAAGAGAGAAGUGAAACAGAGAAACACACGUUGUGGUAUAUUUCCUGGUA, which self-cleavage is on record?
A: Its self-cleavage is 0.392.
